This assay has as its target self-lipid accumulated in leukemia cells peptide on CD1c (human). Description: mLPA titration on K562-CD1c cells; CD69 on transduced Jurkat 76 b2m- cells (FIG. 5B); highest of the three TCRs titrated; full-length, on cells. As to conditions: chains Valpha:Vbeta.

B1: TCR DN4.99 (protein)
chain 1: AQTVTQSQPEMSVQEAETVTLSCTYDTSESDYYLFWYKQPPSRQMILVIRQEAYKQQNATENRFSVNFQKAAKSFSLKISDSQLGDAAMYFCAYRSPLNTGTASKLTFGTGTRLQVTL
chain 2: DVKVTQSSRYLVKRTGEKVFLECVQDMDHENMFWYRQDPGLGLRLIYFSYDVKMKEKGDIPEGYSVSREKKERFSLILESASTNQTSMYLCASSPWVSSYEQYFGPGTRLTVT
B1 yielded an EC50 of peptide of 100 µg/mL.

For the origin of these results see patent US20180305432A1.
